{
  "source": "paper PMC10951066",
  "about": "“The self-reactive FVIII T cell repertoire in healthy individuals relies on a short set of epitopes and public clonotypes” (Frontiers in Immunology, 2024)",
  "molecules": {"B1": {"name": "ovalbumin: chicken ovalbumin, non-self-protein benchmark (protein, UniProt P01012 2-386, looked up)", "Ovalbumin": "GSIGAASMEFCFDVFKELKVHHANENIFYCPIAIMSALAMVYLGAKDSTRTQINKVVRFDKLPGFGDSIEAQCGTSVNVHSSLRDILNQITKPNDVYSFSLASRLYAEERYPILPEYLQCVKELYRGGLEPINFQTAADQARELINSWVESQTNGIIRNVLQPSSVDSQTAMVLVNAIVFKGLWEKAFKDEDTQAMPFRVTEQESKPVQMMYQIGLFRVASMASEKMKILELPFASGTMSMLVLLPDEVSGLEQLESIINFEKLTEWTSSNVMEERKIKVYLPRMKMEEKYNLTSVLMAMGITDVFSSSANLSGISSAESLKISQAVHAAHAEINEAGREVVGSAEAGVDAASVSEEFRADHPFLFCIKHIATNAVLFFGRCVSP"}},
  "key": {"[1]": {"system": "CD4 T cells from healthy donors", "experiment": "IFN-γ ELISPOT of CD4 T cell lines raised against rFVIII, ovalbumin or KLH (four donors)", "assay_type": "cell-based, human", "excerpt": "PBMCs were purified from the whole blood of anonymous healthy donors, who gave informed consent (Etablissement Français du Sang, Rungis, France), using Ficoll-Paque®. Monocyte-derived dendritic cells (DCs) were produced from cells isolated using Percoll gradient by 5 days of culture in AIM-V medium (Invitrogen, Villebon-sur-Yvette, France) supplemented with 1,000 U/ml recombinant human (rh) IL-4 and rhGM-CSF (both from R&D Systems, Lille, France). Mature DCs were produced by two supplementary days of culture in the presence of LPS (1 µg/ml) and R848 (10µg/ml). CD4 T cells were isolated from autologous PBMCs by positive selection using magnetic labeling with anti-CD4 mAbs conjugated to magnetic microbeads followed by magnetic cell sorting, as recommended by the manufacturer (Miltenyi Biotec, Bergisch Gladbach, Germany). Immature DCs were loaded overnight at 37 °C with either 0.2 µM of rFVIII, 0.2 µM of ovalbumin, or 0.25 µM of KLH in 96-well U-bottom plates, while mature DCs were used for FVIII peptides (10 ug/ml). […] 10,000 lymphocytes were collected at day 19 from each T cell line (expanded T cells contained in one well) and their specificity was assessed by using IFN-g ELISPOT.\nT cells were incubated with autologous DCs alone (control) or with DCs incubated with rFVIII (0.2 µM), ovalbumin (3 µM), and KLH (1 µM) or PBMCs for FVIII peptides (10 µg/ml) in MultiScreen 96-well plates (Merck Millipore) previously coated with 2.5 µg/mL of anti-human IFN-γ monoclonal antibody (mAb; 1-D1K; Mabtech). […] The spot number was determined by using the ELISPOT Reader System (Autoimmun Diagnostika, Ebinger, Germany). HLA restriction was assessed using monoclonal antibodies (10 μg/ml) specific to HLA-DP (B7/21), HLA-DQ (SPVL3), or HLA-DR (L243).\n(§1) Firstly, we aimed to characterize the T cell response to rFVIII in vitro using chicken ovalbumin (Ova) as a non-self-protein benchmark. […] Antigen specificity was assessed using the IFN-γ ELISPOT assay. […] The average number per donor of detected clonotypes was 535 and 918, for a total of 2,143 and 3,672 clonotypes detected for FVIII and Ova. […]"}, "[2]": {"system": "CD4 T cells from healthy donors", "experiment": "CD134/CD137 activation-induced marker flow cytometry of pooled specific T cell lines", "assay_type": "cell-based, human", "details": "four donors, overnight re-stimulation with antigen-loaded DCs, unstimulated control removed", "method": "Positive antigen-specific T cell lines determined by using the ELISPOT assay were pooled together at day 21, after 24 h of resting in IMDM medium and with the absence of cytokine stimuli. The pooled T cell lines were re-stimulated overnight with autologous DCs alone (control) or with DCs previously loaded with either 0.2 µM of rFVIII, 0.2 µM of ovalbumin, or 0.25 µM of KLH. Following 24 h of stimulation, cells were harvested in cell staining buffer (phosphate-buffered saline/EDTA 2 mM/bovine serum albumin 0.5%) and then stained for CD4 (Vio-Blue, clone REA623, Miltenyi Biotec) and activation-induced markers CD134 (OX-40) (PE anti-human, clone Ber-ACT35, Biolegend) and CD137 (4-1BB) (APC anti-human, clone 4B4-1, Biolegend). The CD4/CD134/CD137-positive population for each condition was sorted by flow cytometry ([…] III; Becton Dickinson, San Jose, CA, USA).\nas §1, with “benchmark. Given the low frequency of FVIII-specific T cells in healthy donors, we enriched the CD4 population in vitro before analyzing their specificity and sorting them for TCR CDR3β sequencing (Figure 1A).” for “benchmark.”"}},
  "data": [
    {"molecule": "B1", "values": [
      {"measurement": "positive T cell lines", "setting": "[1]; Donor #1180, positive/tested T cell lines", "value": "13/24"},
      {"measurement": "specific T cell lines", "setting": "[1]; among 96 T cell lines tested for each antigen, four healthy donors, specific = spot count twofold over control, minimum difference 25 spots", "value": 58},
      {"measurement": "precursor frequency of antigen-specific CD4 T cells", "setting": "[1]; four healthy donors, estimated with Poisson distribution", "value": 5, "unit": "cells/M"},
      {"measurement": "mean activation percentage (CD134/CD137 double-positive of total CD4)", "setting": "[2]", "value": 1.25, "unit": "%"}
    ]}
  ]
}
